Test results taken from patent US20190218277A1 (Chugai, published 2019).

Key:
[1] = biological target: T1, Recombinant soluble E protein (0.8E-His) from DENV-1 (DENV-1, UniProt P27909 281-675)
T1 construct: also called DENV-1 E protein; DV1

[2] = biological target: T2, Recombinant soluble E protein (0.8E-His) from DENV-4 (DENV-4, UniProt P09866 280-674); experiment: SPR, Biacore T200
T2 construct: also called DENV-4 E protein; DV4

[3] = biological target: T3, Recombinant soluble E protein (0.8E-His) from DENV-2 (DENV-2, UniProt P14340 281-675); experiment: SPR, Biacore T200
T3 construct: also called DENV-2 E protein; DV2

[4] = biological target: T4, Recombinant soluble E protein (0.8E-His) from DENV-3 (DENV-3, UniProt P27915 281-673)
T4 construct: also called DENV-3 E protein; DV3

Binder	Kd [1]	binding result [2]	binding result [3]	Kd [4]
DG_3CH1047-SG1095/3CL012-SK1 (antibody, human IgG1, kappa, L234A L235A) heavy: QVQLVQSGPDVEKPGASVKVSCKASGYTFTSYYMHWVRQAPGQGLEWMGVINPRGGSRRSAQKFQGRITMTRDTSTSTVYMELSSLRSEDTAVYYCARGGEALFYDSYTTPFDGGSWWFDPWGQGSLVTVSSASTKGPSVFPLAPSSKSTSGGTAALGCLVKDYFPEPVTVSWNSGALTSGVHTFPAVLQSSGLYSLSSVVTVPSSSLGTQTYICNVNHKPSNTKVDKRVEPKSCDKTHTCPPCPAPEAAGGPSVFLFPPKPKDTLMISRTPEVTCVVVDVSHEDPEVKFNWYVDGVEVHNAKTKPREEQYNSTYRVVSVLTVLHQDWLNGKEYKCKVSNAALPAPISKTISKAKGQPREPQVYTLPPSREEMTKNQVSLTCLVKGFYPSDIAVEWESNGQPENNYKTTPPVLDSDGSFFLYSKLTVDKSRWQQGNVFSCSVMHEALHNHYTQKSLSLSP light: not shown	2210 pM	binds	binds	3.17 pM
DG_3CH1000-SG1106/3CL012-SK1 (antibody) heavy: QVQLVQSGPDVEKPGASVKVSCKASGYTFTSYYMHWVRQAPGQGLEWMGVINPRGGSRRSAQKFQGRITMTRDTSTSTVYMELSSLRSEDTAVYYCARGGRALFYDSYTTPFDGGSWWFDPWGQGSLVTVSSASTKGPSVFPLAPSSKSTSGGTAALGCLVKDYFPEPVTVSWNSGALTSGVHTFPAVLQSSGLYSLSSVVTVPSSSLGTQTYICNVNHKPSNTKVDKRVEPKSCDKTHTCPPCPAPEAAGGPSVFLFPPKPKDTLMISRTPEVTCVVVDVSHEDPEVKFNWYVDGVEVHNAKTKPREEQYNSTYRVVSVLTVLHQDWLNGKEYKCKVSNAALPAPISKTISKAKGQPREPQVYTLPPSREEMTKNQVSLTCLVKGFYPSDIAVEWESNGQPENNYKTTPPVLDSDGSFFLYSKLTVDKSRWQQGNVFSCSVLHEALHAHYTRKELSLSP light: not shown	1910 pM	binds	binds	0.101 pM
DG_3CH1000-SG1106/3CL119-SK1 (antibody) heavy: QVQLVQSGPDVEKPGASVKVSCKASGYTFTSYYMHWVRQAPGQGLEWMGVINPRGGSRRSAQKFQGRITMTRDTSTSTVYMELSSLRSEDTAVYYCARGGRALFYDSYTTPFDGGSWWFDPWGQGSLVTVSSASTKGPSVFPLAPSSKSTSGGTAALGCLVKDYFPEPVTVSWNSGALTSGVHTFPAVLQSSGLYSLSSVVTVPSSSLGTQTYICNVNHKPSNTKVDKRVEPKSCDKTHTCPPCPAPEAAGGPSVFLFPPKPKDTLMISRTPEVTCVVVDVSHEDPEVKFNWYVDGVEVHNAKTKPREEQYNSTYRVVSVLTVLHQDWLNGKEYKCKVSNAALPAPISKTISKAKGQPREPQVYTLPPSREEMTKNQVSLTCLVKGFYPSDIAVEWESNGQPENNYKTTPPVLDSDGSFFLYSKLTVDKSRWQQGNVFSCSVLHEALHAHYTRKELSLSP light: not shown	1910 pM	binds	binds	1.82 pM
DG_3CH1047-SG1106/3CL012-SK1 (antibody) heavy: QVQLVQSGPDVEKPGASVKVSCKASGYTFTSYYMHWVRQAPGQGLEWMGVINPRGGSRRSAQKFQGRITMTRDTSTSTVYMELSSLRSEDTAVYYCARGGEALFYDSYTTPFDGGSWWFDPWGQGSLVTVSSASTKGPSVFPLAPSSKSTSGGTAALGCLVKDYFPEPVTVSWNSGALTSGVHTFPAVLQSSGLYSLSSVVTVPSSSLGTQTYICNVNHKPSNTKVDKRVEPKSCDKTHTCPPCPAPEAAGGPSVFLFPPKPKDTLMISRTPEVTCVVVDVSHEDPEVKFNWYVDGVEVHNAKTKPREEQYNSTYRVVSVLTVLHQDWLNGKEYKCKVSNAALPAPISKTISKAKGQPREPQVYTLPPSREEMTKNQVSLTCLVKGFYPSDIAVEWESNGQPENNYKTTPPVLDSDGSFFLYSKLTVDKSRWQQGNVFSCSVLHEALHAHYTRKELSLSP light: not shown	2180 pM	binds	binds	2.36 pM
DG_3CH953-SG1106/3CL119-SK1 (antibody) heavy: QVQLVQSGPDVEKPGASVKVSCKASGYTFTSNYIHWVRQAPGQGLEWMGVINPRGGSRRSAQKFQGRITMTRDTSTSTVYMELSSLRSEDTAVYYCARGGRALFYDSYTTPFDGGSWWFDPWGQGSLVTVSSASTKGPSVFPLAPSSKSTSGGTAALGCLVKDYFPEPVTVSWNSGALTSGVHTFPAVLQSSGLYSLSSVVTVPSSSLGTQTYICNVNHKPSNTKVDKRVEPKSCDKTHTCPPCPAPEAAGGPSVFLFPPKPKDTLMISRTPEVTCVVVDVSHEDPEVKFNWYVDGVEVHNAKTKPREEQYNSTYRVVSVLTVLHQDWLNGKEYKCKVSNAALPAPISKTISKAKGQPREPQVYTLPPSREEMTKNQVSLTCLVKGFYPSDIAVEWESNGQPENNYKTTPPVLDSDGSFFLYSKLTVDKSRWQQGNVFSCSVLHEALHAHYTRKELSLSP light: not shown	1960 pM	binds	binds	2.17 pM
DG_3CH1049-SG182/3CL119-SK1 (antibody, V domains shown) VH: QVQLVQSGAEVKKPGASVKVSCKASGYTFTSYYMHWVRQAPGQGLEWMGVINPRGGSRRSAQKFQGRVTMTRDTSTSTVYMELSSLRSEDTAVYYCARGGEALFYDSYTTPFDGGSWWFDPWGQGSLVTVSS VL: DIQLTQSPSSLSASVGDRVTFTCQASQEIRKYLNWYQQKPGKAPKLLIYDASNLKTGVPSRFSGSGSGTDFTFTISSLQPEDVATYYCQQFDDLPITFGQGTRLQIKR	1720 pM	binds	binds	5.09 pM
DG_3CH1049-SG182/3CL012-SK1 (antibody, V domains shown) VH: QVQLVQSGAEVKKPGASVKVSCKASGYTFTSYYMHWVRQAPGQGLEWMGVINPRGGSRRSAQKFQGRVTMTRDTSTSTVYMELSSLRSEDTAVYYCARGGEALFYDSYTTPFDGGSWWFDPWGQGSLVTVSS VL: DIQLTQSPSSLSASVGDRVTFTCQASQDIRKYLNWYQQKPGKAPKLLIYDASNLKTGVPSRFSGSGSGTDFTFTISSLQPEDVATYYCQQFEDLPITFGQGTRLQIKR	2260 pM	binds	binds	1.05 pM
DG_3CH1049-SG182/3CL-SK1 (antibody, V domains shown) VH: QVQLVQSGAEVKKPGASVKVSCKASGYTFTSYYMHWVRQAPGQGLEWMGVINPRGGSRRSAQKFQGRVTMTRDTSTSTVYMELSSLRSEDTAVYYCARGGEALFYDSYTTPFDGGSWWFDPWGQGSLVTVSS VL: DIQLTQSPSSLSASVGDRVTFTCQASQDIRKYLNWYQQKPGKAPKLLIYDASNLKTGVPSRFSGSGSGTDFTFTISSLQPEDVATYYCQQFDDLPITFGQGTRLQIKR	2140 pM	binds	binds	2.39 pM
DG_3CH1047-SG1095/3CL119-SK1 (antibody) heavy: QVQLVQSGPDVEKPGASVKVSCKASGYTFTSYYMHWVRQAPGQGLEWMGVINPRGGSRRSAQKFQGRITMTRDTSTSTVYMELSSLRSEDTAVYYCARGGEALFYDSYTTPFDGGSWWFDPWGQGSLVTVSSASTKGPSVFPLAPSSKSTSGGTAALGCLVKDYFPEPVTVSWNSGALTSGVHTFPAVLQSSGLYSLSSVVTVPSSSLGTQTYICNVNHKPSNTKVDKRVEPKSCDKTHTCPPCPAPEAAGGPSVFLFPPKPKDTLMISRTPEVTCVVVDVSHEDPEVKFNWYVDGVEVHNAKTKPREEQYNSTYRVVSVLTVLHQDWLNGKEYKCKVSNAALPAPISKTISKAKGQPREPQVYTLPPSREEMTKNQVSLTCLVKGFYPSDIAVEWESNGQPENNYKTTPPVLDSDGSFFLYSKLTVDKSRWQQGNVFSCSVMHEALHNHYTQKSLSLSP light: not shown	2230 pM	binds	binds	3.79 pM
